# Experimental data published in US20260241035A1, “FUNCTIONAL NUCLEIC ACID MOLECULE AND METHOD” (THE UNIVERSITY COURT OF THE UNIVERSITY OF EDINBURGH, priority 2022, published 2026).
# B1: ID4428: enhancer fragment, SEQ ID NO: 18 (nucleic acid)
# DNA: TCTAAATGGAGATCCTCCCATAAAGGGAGTTCTGTTTGGGCTTCCCTTGGAAGTCCATTGAAAGCGTTTCACATTTCAATGCTTCTTTACATTCTCCTCTAGAATGAATCTGGAAGGGCCATTTCATTCCAGCCCTATCAGATTTACTACTTCCTCCTGT
# B2: ID2339: enhancer fragment, SEQ ID NO: 9 (nucleic acid)
# DNA: GTCGGCGGAACTGAGTCTCCTTTGTGGAGCCCCTCATTTGCATGATAAACCCCGGGGACAAAGTGTGTTCTTGTTACTTGGACTGTTTCTTGGAAACTGCTGCTACCTGGAGCGAGTGAACACAGGGCAAGTATTCTCGCCCACAGCAACGTGTCATTGA
# B3: ID0785: enhancer fragment, SEQ ID NO: 19 (nucleic acid)
# DNA: AAGAATGAACTGGGCCCAGCTGGGCATTTGCATCAAAGTGCCTCACCAGAGTTCCCAGCTGCTCTGGCAGAGTGCCCAGGCTTGCCCCAGAGCCCAAACAGAATGCTCTTTGAGATGCCTCTGGTTTTCA
# modifications: listed as DNA, chemistry not given here
# B4: ID3146: enhancer fragment, SEQ ID NO: 16 (nucleic acid)
# DNA: TGAAAGAGATGGGTGTGTGGGAGTGGGGGAAGCTGAGCTCCAGGCAGACAGCACAGAGCCGCCTTGTCCAACCCAGCCAGGTGCCATGGCAACCAACAAAGGCCCCATTGTCCCGTGTCTGCTGGGCCTTCCTGAGGCTCTGGGGTCAGAGTCCCGGTT
# B5: CSE006: clustered SOX dimer motif enhancer, SEQ ID NO: 53 (nucleic acid)
# DNA: AGGAAGAAGCATGCTGGGTCATTTTTGCCTTGTTTCTAGCTGCATGAATTGAAAAGCCAGGCCCAGGTTCAATGCATCATTCTTGAAGCAGTGAACAAAATCCCTCTTTGTTCCCCAGTGAAACTTATCTCTGAAGAGCTGCACTACTTCCTGTGAGATATAGCCCTGCAGATGTGTCGTGGGAGACCCGCCCGGCTGCACTGCCTTCCATAAAAGTGCAAGAATGGGCACTTTGTACTGCTGGACTGAAAATGACACTCACTCTTCTGATCCCCACTGGGGTTACCAAGTGGGCAAAACTTCCTGCTTAGAGGAGGGGTCATAGACAGCAGGGGGAGTGTGTGATTTTGTTTTGTTCCTTTGTGAATTTGTTTAGCTATTTATAGAGCTAAAGGAGAAAGCAAACGGGCACAATGTAGCACAGTGTTTTTCAAAGTGTATTCCATGGAACCCTTTCGTGGGTTGCAGACCCCAGGGGTGGAGGCAGAGGATGGGGTGGTGACAGCAGCAGGTGCTGTCCAGGGCCTTCTGTCT
# B6: ID2706: enhancer fragment, SEQ ID NO: 12 (nucleic acid)
# DNA: CCAATGCCAAAGCAGTTTACATTTTACAGATGCCATGGCAACCGTCAGGAAGTTACCCTGTATGGTCTAAGAGGGGGAGGAACCCTCAGTTCCGGGAATTGCCCGCCCCTTTCCCGGAAACTCATGAATAATCCACCC
# B7: CSE031: clustered SOX dimer motif enhancer, SEQ ID NO: 52 (nucleic acid)
# DNA: CAGAGGAGAGAGGAGGTCATTTGGGACCATTTACTCATGCGAGAGTCACTGCCCCATGCTAAGATTTCCCCTAAAAATAAAATGATAAGATAATAACTCATAATGCTCTCCCCAAATCAGTACCACACAGACCCCCCTCTTCTGTTTGCTCAGACCCCCGCTCTCCAGCACAAAGTCTTTATTGGTCTCCCTGCAGGGGTGAAAATAAAGGGGGTTTTGTTCTTCTCCTCCCCCTCCCCCCTCGAAGGGCTGAGTGAGTTTATCTGACACTGCAGCAGTCTTTGTAAACTGAGTGTCCCAGGATAAACGCTCCCTTAAGAGTCGCTTGGCCTGGGACAGAGGGACCCTCTCCAGAGGAGAATGGGGAGCTTGTTCCAATGGTCTTTTAATATGGGGGGCGGGGTGTCACCAAGGACAGGCCTCCAGCACACTCTCACAGAAGGGTCTCTGTCCTGAGGCTACAGTGGAGGGAATTCTTAAAGACACAGATGCTGAAAAGGGGGAAGGAATTTTTTTTTCCCCTAAGGGGAGGGGAGGGAGGTTAGGGCGGGAAGGAGAAGGGGGAGTGGCGAGGACTCCTCATTCCCCAGAACAATTCCAGTTACAACAAGGCGTCTCTAT
# B8: ID4310: enhancer fragment, SEQ ID NO: 17 (nucleic acid)
# DNA: TTGTCCTGCCTTTGAGAACACTGGAAGGGCACTGAAGGCTGACCAGCATGCACCTCACCCCACCTCCTCTCTGTCTCATCCTCAGCCATCTAAGCGGGAGACTCATCAGGCTTAAATTCTCATTCTTATCCAAGATTCTTCTGCTTCAAATGAG
# B9: ID3765: enhancer fragment, SEQ ID NO: 21 (nucleic acid)
# DNA: TTGTCCTGCCTTTGAGAACACTGGAAGGGCACTGAAGGCTGACCAGCATGCACCTCACCCCACCTCCTCTCTGTCTCATCCTCAGCCATCTAAGCGGGAGACTCATCAGGCTTAAATTCTCATTCTTATCCAAGATTCTTCTGCTTCAAATGAG
# B10: ID0291: enhancer fragment, SEQ ID NO: 24 (nucleic acid)
# DNA: CATTCTTTGCAGATAGGAAACAGTTTGCTATCTGAGAGACTGGCCAAAAACCTTACTTTCAAGTAAAATAGGGCTCTATTCATAAGCTCCTACATGTACACAAGTTACTCTTTATACTCCTTTCAGACAATGATAAGAATAGAAACTATTTAATTCAGGA
# B11: ID1888: enhancer fragment, SEQ ID NO: 23 (nucleic acid)
# DNA: GACCTTGCCTCTTTCTGGCCTGTGGCCTTTCTCCTCCCCCAGCTGCTGTCTGGCCGCCCCACCCCCAAGTCTCTGCCACAACCAAAGCTCCTTTGTTGCCTCCCCCTGCCCCGGGCCTCTCCACCTGCTGCTAGCTCAATCCCCTCTTTGTGTGGTTGGT
# B12: ID1737: enhancer fragment, SEQ ID NO: 10 (nucleic acid)
# DNA: CAACGTTTTTGGCAGATGCAGCTCTTTCTGAACAGTAAGTCATTGTTGAGTGACATGAATAGGACGAGAGCTACAGAAAATGAAGGTTTCAAAAGATTGTCTAAAACAAAAGTCCTTTCAGTCCCGTATTCAGAGTT
# B13: ID1176: enhancer fragment, SEQ ID NO: 22 (nucleic acid)
# DNA: ACAAACTAAACACAGACATTTTCTCAATTAGTCATTTTCAGGTTTATTGCCTAAGATGCTAATTGAAATTCAGGGCAGGCAAAAATACATCATTGGCCTTTGTATATCTTTGAAAGGCCTTCTGATGGGACCTTGCTCCGTATAAAGGCTTCTCTTCTCT
# B14: ID0885: enhancer fragment, SEQ ID NO: 14 (nucleic acid)
# DNA: CAGCAAAGGCTGCACGCAATGGGGGAGGGGGAAGGAGGGAAGGATATTTCCTCCTTTTTAGATCAGTTTCTTTTCTGAGCACAAGTGCTTTCTGTGTCATCCTAACAATGTAAGAGCCCACTAAGTTTAGGACGCATAATACCGGCCTTTGTTCTACTCC
# B15: ID3836: enhancer fragment, SEQ ID NO: 20 (nucleic acid)
# DNA: TACCCTTCCAGGGGAGCAGTTTCCTGGCTGTGTCGTCAGATACTGTGGTTTACGCTGTTCCGGAGTCTGGAGGTCTGTGTGCCTTTGATCTCTTTCCCAACTAATTTGCACAGCTGCTGTGGAGGCCCTCATGAATGACCTCTTTCTTTCCTTTCT
# B16: ID0663: enhancer fragment, SEQ ID NO: 11 (nucleic acid)
# DNA: ATAAATTCCGATTAGCCAAGGAAGCTCTGAGTCTAAATACCAGCAAAGCTCAGCCCCTGCAAGTGGGGACGAATTATTTGAAAGGTCATCCTAGAGACACTGAACAAAGGGCCTCTAGCAGCT
# modifications: listed as DNA, chemistry not given here
# B17: CSE074: clustered SOX dimer motif enhancer, SEQ ID NO: 51 (nucleic acid)
# DNA: ATACATTTTAGCACCAAACACAATTTAATAACAGGGCACAGAGGCCGCAAAGCCTCCTGATTCTGTTCCATTACTAATTTATCAGGGGCTGAAAGCAACCAAACTTAGGATCCCAGGCAGACAATGGAGCCTTTGAGGGGCAAGGGAAGCATCATTTAAAAGGAAAGCATTACCATTCTAAAATAATGGCAAAGCACATGAACTGAGTGCTCTGAAAGAGAGCACTACAAAAAAGGTATTCTCAGCTTAAATGCCCCAAACACAAAAGCTTTTAGTTGGGACTTAGACGGGAAAAAGAAAATAGCTCCCAATAAATTGGTTTTACCAGTATCCTTTTGTGTGTGCTGGTGCCAAGGGGGCGAGGGTACAGGCAAAGCGTGATTTTCCAAAACCTAGCTGAATTATGTTTCTTCTTTAGAACAAAACCCAACATTTTGCTAATGAGGATAAAGACAGTAAAACTGATATTCCTGTGCTATTACTAACTTGG
# B18: ID3548: enhancer fragment, SEQ ID NO: 15 (nucleic acid)
# DNA: TCCAAACACTCCCCTGCAACAGATGTACACACAGAGCCCATTGTTTTCTCTAGAAATGTAAACTGCACGTCACAGTTACTCCATACACACCACAAACAGACTCCCTTTGTTCTCAGGATATGTGTTGACACAAGAATATGTCATCCTCTCAGCTCCAGAC
# B19: ID3547: enhancer fragment, SEQ ID NO: 13 (nucleic acid)
# DNA: CGTTCCCCCTTAACAAAAGCCACCTCCTCCCTCCTGAAAGGCACCATTGGTCACCAAAACAAGTCCCCTTTGTCCTCCACCGCAGCTGGAGCCTGGGCCTTCCATCTCCTGGGGGCCAATAAAACCCCAGATCAGCCAATCCTCCCTCCCTGGCTCTGTCA
# Tested on: GSC7 cells
# Experiment: Nano-Glo Dual-Luciferase Reporter (Nanoglo DLR) assay of enhancer activity, fold change to mCMV
# Type: cell-based, human
# Conditions: expression fold change of the individual enhancer compared to mCMV
# Method in brief: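 160 bp enhancer fragments in NanoLuc reporter plasmids were co-transfected 1:10 with PGK-firefly luciferase into GSC7 cells using Lipofectamine LTX/Plus and read two days later. NanoLuc signal was normalised to firefly, then expressed as fold change to the empty mCMV vector.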
row,Molecule,Fold change (Median) [fold]
1,B1,36.2
2,B2,79.6
3,B3,34.3
4,B4,37.2
5,B5,524.3
6,B6,57.2
7,B7,249.3
8,B8,36.3
9,B9,31.7
10,B10,29.0
11,B11,31.1
12,B12,77.1
13,B13,31.3
14,B14,42.6
15,B15,33.4
16,B16,59.1
17,B17,250.6
18,B18,40.0
19,B19,53.2
